The record followed here is patent publication US12162934B2, “Gremlin-1 antagonist for the prevention and treatment of cancer” (UCB BIOPHARMA SRL, priority 2018, dated 2024).

The subject of assay [1] is mouse intestinal crypts. The assay is described as follows: Mouse intestinal organoid culture. The note with it: 1 mg/ml antibody added to fully supplemented EGR media. The assay is classed as cell-based. An excerpt: Culture of mouse intestinal crypts. Mouse intestinal crypts were isolated and cultured as described by Sato et al (6). In brief, crypts were isolated, resuspended in Matrigel (BD Biosciences) and plated out in 24-well plates. The basal culture medium (advanced Dulbecco's modified Eagle medium/F12 supplemented with penicillin/streptomycin, 10 mmol/L HEPES, Glutamax, 1×N2, 1×B27 (all from Invitrogen), and 1 mmol/L N-acetylcysteine (Sigma)) was overlaid containing the following growth factors; Epidermal Growth Factor at 50 ng/ml (Life Technologies), Gremlin1 at 100 ng/ml (R and D), R-spondin1 at 500 ng/ml (R and D) [EGR media]. Anti-Grem1 antibody (UCB) was used at a concentration of 1 mg/ml. The media was changed every two days.
A mouse organoid culture was used to assess effects of an anti-GREM1 antibody. Successful intestinal epithelial organoid culture is dependent on media supplementation of exogenous BMP antagonist.
Approximately 60% of crypts formed organoids in media fully supplemented with recombinant epidermal growth factor (E), Grem1 (G) and R-Spondin1, (R) (EGR media). Culture success rate dropped to less than 2% at 7 days in media lacking recombinant Grem1 (ER media).

The subject of assay [2] is Vil1-Grem1 mice. Description: AOM mutagenesis in Vil1-Grem1 mice. The assay is classed as in vivo, mouse. As to conditions: 30 mg/kg weekly antibody for three weeks before and after three 10 mg/kg weekly AOM doses. An excerpt:
Aberrant epithelial Grem1 expression in Vil1-Grem1 mice promotes an epithelial stem/progenitor cell phenotype (Davis et al., 2015), and we hypothesised that these cells would be susceptible to somatic mutation. We used azoxymethane (AOM) administration to examine the effect of a mutagenic insult on untreated Vil1-Grem1 and anti-Grem1 treated Vil1Grem1 mice. AOM is a well-documented mutagen widely utilised in murine models to recapitulate spontaneous CRC carcinogenesis (Neufert and Neurath, 2007).
Mice were treated with three subcutaneous doses of 30 mg/kg weekly anti-Grem1 antibody followed by three intraperitoneal doses of 10 mg/kg weekly azoxymethane (AOM, Sigma) or vehicle (saline) prior to a further three weeks of 30 mg/kg weekly anti-Grem1 antibody. Treatment commenced at or from the age of 90 days onwards, which is late enough in the Vil1-Grem1 disease process to ensure expansion of the progenitor cell population and subsequent formation of ectopic crypt foci.

For assay [3], the target named is T1, BMP4/7-Gremlin-1 complexes (Homo sapiens, UniProt O60565).
T1 sequence (O60565 25-184): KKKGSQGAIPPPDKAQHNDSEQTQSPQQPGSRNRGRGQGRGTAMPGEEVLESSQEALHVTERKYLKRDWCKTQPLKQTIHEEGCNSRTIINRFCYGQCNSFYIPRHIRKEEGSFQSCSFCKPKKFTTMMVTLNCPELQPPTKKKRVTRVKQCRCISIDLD
Description: SMAD phosphorylation assay: displacement of BMP4/7 from Gremlin 1-BMP complexes. The assay is classed as cell-based. The note with it: BMP4/7 50 ng/ml. As for the experimental part:
Experiments were again performed using lung fibroblasts from idiopathic pulmonary fibrosis patients. rhBMP-2 or rhBMP 4/7 were preincubated with rhGremlin-1 for 1 hour at room temperature. The BMP-2- or BMP4/7-Gremlin-1 complexes were incubated with different concentrations of the anti-Gremlin-1 antibodies overnight at 4° C. Antibody concentrations represent the final concentration on the plate.

In assay [4] the test system is Foxl1, Wnt5A and Wnt2B expression. The assay is described as follows: In situ hybridisation of Foxl1 and Wnt ligands in Vil1-Grem1 villus stroma. Format: in vivo, mouse. Here is the method: To investigate the source of Wnt ligand expression in the villus ectopic crypts in antibody treated and untreated Vil1-Grem1 mice (n=4) we used Foxl1 in situ hybridization (ISH) to identify sub-epithelial telocyte cells as described by Shoshkes-Carmel et al. (2018). Foxl1 expression levels were quantified using the HALO image analysis software.
Paraffin blocks were sectioned (thickness=[…]) using DEPC (Sigma) treated H2O and sections were baked for 2 hours at 60° C. Tissue was deparaffinised and treated with RNAscope Hydrogen Peroxide (ACD 322335) for 10 min at room temperature (RT). Antigen retrieval was performed for 15 minutes using RNAscope 1× Target Retrieval Reagents (1:10 ACD 322000) at 100° C. Samples were treated with RNAscope Protease Plus (ACD 322331) for 30 minutes at 40° C. using an HybEZ Hybridization System (ACD). Probes were incubated for 2 h at 40° C. Probes used were as follows: LGR4 (ACD 318321), LGR5 (ACD 312171), FZD5 (ACD 404911), FZD7 (ACD 534101), WNT2B (ACD 405031), WNT5A (ACD 316791), WNT5A-C3 (ACD, 316791-C3) and FOXL1 (ACD 407401). Slides were counter-stained using Haematoxylin […] or DAPI (Fluorescent).
Slides were scanned at 20× magnification using an Aperio CS2 Digital Pathology Scanner (Leica Biosystems). […] Foxl1 expression levels were quantified using the HALO image analysis platform (PerkinElmer) and expressed as % of DAB staining per area. […]

Assay [5] addresses T2, rhGrem1 (Homo sapiens, UniProt O60565).
T2 sequence (O60565 25-184): T1 sequence (O60565 25-184)
The assay is described as follows: Western blot of Smad1/5/9 phosphorylation in murine 4T1 breast cancer cells. The assay is classed as cell-based, mouse. As to conditions: 10 ng/ml BMP2, 100 ng/ml rhGrem1 pre-incubated with antibody; vs isotype control. As for the experimental part:
Murine 4T1 BrCa cells were seeded into 6-well plates and cultured until 80% confluent. Cells were starved in serum-free medium overnight, and then stimulated with indicated treatments for 2 hrs. Cell lysates were prepared and equivalent amounts of protein (50 μg) were separated on 10% sodium dodecyl sulphate-polyacrylamide gel electrophoresis (SDS-PAGE) gels and transferred to nitrocellulose membranes. Immunoblotting was performed with phospho-Smad1/5/9 antibodies (cell signalling technologies, 1:1000 dilution). Equal loading of protein samples was confirmed by blotting membranes with antibodies against β-actin (Sigma Aldrich, 1:2500 dilution). Proteins were visualised using the Odyssey Infrared Imaging System (LI-COR Bioscience, Lincoln, NE, USA).
As Grem1 is a known BMP-2/4/7 antagonist, we assessed the ability of UCB antibody Ab7326 to inhibit Grem1-induced inhibition of Smad1/5/9 phosphorylation via western blot analysis. Murine 4T1 breast cancer cells exposed to 10 ng/ml BMP2 which led to Smad1/5/9 phosphorylation. Co-incubation with 100 ng/ml rhGrem1 inhibited this BMP2-mediated Smad1/5/9 phosphorylation.
In general terms: A western blot detects proteins with antibodies after separation by electrophoresis.

Turning to “Ab7326: allosteric inhibitory anti-Gremlin-1 antibody from a naïve human library; CDRs SEQ ID NOS 4 to 9; mouse IgG1 in mouse experiments”, the “Intestinal organoid culture success” value in assay [1] is “prevented successful intestinal organoid culture”. The “Increased tumour burden and reduced survival of AOM-treated animals” value in assay [2] is on record as “partially abrogated”. For the same substance, the “Displacement of BMP4/7 from Gremlin 1-BMP complexes (SMAD phosphorylation)” value turned out to be 102.0% in assay [3] (antibody 0.63 μg/ml); 111.1% in assay [3] (antibody 1.27 μg/ml); 120.9% in assay [3] (antibody 2.55 μg/ml); 121.4% in assay [3] (antibody 5.1 μg/ml); 125.6% in assay [3] (antibody 10.2 μg/ml); 130.3% in assay [3] (antibody 20.3 μg/ml). Further, the entries for the “Displacement of BMP4/7 from Gremlin 1-BMP complexes (SMAD phosphorylation)” value in assay [3] (antibody 40.6 μg/ml) and in assay [3] (antibody 81.3 μg/ml) were 132.3% and 133.7%, respectively. Also, the “Stromal Wnt ligand (5A and 2B) expression (ISH)” value in assay [4] (antibody-treated Vil1-Grem1 mice) is on record as “abrogated Wnt ligand expression”. Besides, in assay [4] (antibody-treated Vil1-Grem1 vs WT p=0.4864), the “Villus stromal Foxl1 expression (ISH)” value is on record as “restored Foxl1 expression levels”. For the same substance, the “Smad1/5/9 phosphorylation in 4T1 cells” value in assay [5] is “partially restored”.
